Results: patent CN114349851A (SHANGHAI NAI BIOTECHNOLOGY CO LTD, dated 2022)

B1: 纳米抗体C5D2 (VHH)
VHH: DVQLVESGGGSVQAGGSLRLSCAASGEYSQLRFLGWFRQAPGKEREGVAAGLGANEDGYYADSVKGRFTVSLDNAENTVYLQMNSLKPEDTALYYCAALVIFSHDGPEFLAQNYWGQGTQVTVSS
B2: 纳米抗体C5G2 (VHH)
VHH: DVQLVESGGGSVQAGGSLRLSCAASGKFSHLVFLGWFRQAPGKEREGVAAGLGAYESGYYADSVKGRFTVSLDNAENTVYLQMNSLKPEDTALYYCAALVVLSRDNTEFIAHNYWGQGTQVTVSS

Key:
[1] = molecular target: T1, RBD-Fc (RBD与Fc的融合蛋白), 野生型RBD (SARS-CoV-2, UniProt P0DTC2 319-541); test: BLI (Octet RED96), His-tagged nanobody on Ni-NTA sensor, RBD-Fc as analyte
[2] = molecular target: T1, RBD-Fc (RBD与Fc的融合蛋白), 野生型RBD; test: competitive ELISA, nanobody titrated against RBD binding to coated ACE2
[3] = molecular target: T1, RBD-Fc (RBD与Fc的融合蛋白), 野生型RBD; test: BLI, compared with C5

| Binder | Kd [1] | IC50 [2] | fold increase in affinity over C5 [3] |
| --- | --- | --- | --- |
| B1 | < 0.001 nM | 28 nM | – |
| B2 | 1.62 nM | 88 nM | 11 fold |
